In the supplement of paper PMC12042874:
± gives the uncertainty stated by the source.

Experiment: amyloid nucleation score (Sup35N fusion, yeast selection) (log enrichment); library NNK2; higher = more nucleation; inactive = no reads after selection
How it was run: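 Sup35N was fused to peptides of 20 random codons and expressed in psi-negative yeast, which were induced with 100 μM copper sulfate for 24 hours and then grown on medium lacking adenine and uracil for 7 days at 30°C. Plasmid inserts from input and output were sequenced on Illumina. The nucleation score is the DiMSum log enrichment of output over input reads, centred on the mode score of non-aggregating sequences. Sequences with under 100 input reads were left out, and random libraries had three technical output replicates.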

Substance: DSCCMSYSRQNCTY
- amyloid nucleation score: 0.218 ± 0.8

Substance: YILNMFKETLDVLVLKRNCF
- amyloid nucleation score: -1.18 ± 1.1

Substance: SVGYWTVDSVTSVATPLFLA
- amyloid nucleation score: 0.331 ± 0.35

Substance: SFTAHTSIHASNLYTDLLLC
- amyloid nucleation score: 3.41 ± 0.063

Substance: VDAVLND
- amyloid nucleation score: 0.432 ± 0.29

Substance: SMASGILCDAAYNACSQGCG
- amyloid nucleation score: 0.632 ± 0.48

Substance: YITFSDRLWTLLLWCRILWL
- amyloid nucleation score: -0.002 ± 1

Substance: LMLTCKLSFPGLVNLSCSPI
- amyloid nucleation score: -0.84 ± 0.34

Substance: ILFIIWGHLRYVRIVSYVGY
- amyloid nucleation score: -1.48 ± 0.62

Substance: HTSVLNMTGSGLIPN
- amyloid nucleation score: -1.82 ± 0.78

Substance: FLSYFCIIFSTNLKLSSK
- amyloid nucleation score: 2.1 ± 0.15

Substance: WCWLEYCCTIDSLIFLFEN
- amyloid nucleation score: 4.09 ± 0.12

Substance: VIAFYVAFFNRTRVSYRSLW
- amyloid nucleation score: 4.22 ± 0.06

Substance: SVCYGSSIWN
- amyloid nucleation score: -0.083 ± 0.39

Substance: IITLSYGGCSVGPCGQ
- amyloid nucleation score: 7.371 ± 0.057

Substance: ENCFVSICVGSATLGMCSSG
- amyloid nucleation score: 8.02 ± 0.034

Substance: THQRAYCFSSVYWVNVSKSG
- amyloid nucleation score: -0.006 ± 0.74

Substance: SRPFMIYREYVASSIVSNQL
- amyloid nucleation score: -0.606 ± 0.29

Substance: ALYRSGHLMLTVNGGCWWDF
- amyloid nucleation score: 0.45 ± 0.8

Substance: DDNVLYCYSYVVHESLSAAQ
- amyloid nucleation score: 0.354 ± 0.3

Substance: MRSFGPIFSVLL
- amyloid nucleation score: -0.067 ± 0.34

Substance: SNGFREYCATICNGTGDRRG
- amyloid nucleation score: 0.651 ± 0.62

Substance: VKRYGINGGFNYSSYCTAGI
- amyloid nucleation score: inactive

Substance: RWTKGCDSNCIWF
- amyloid nucleation score: -0.502 ± 0.25

Substance: QENFCEYFFDRSITSWWR
- amyloid nucleation score: inactive

Substance: FCLIHVVM
- amyloid nucleation score: 1.32 ± 0.27

Substance: SFSRYF
- amyloid nucleation score: -1.58 ± 0.75

Substance: YMSNPSELWKNWILVHYHFC
- amyloid nucleation score: 3.56 ± 0.076

Substance: YHYGNGVAWDMTRKPRHHFV
- amyloid nucleation score: -0.243 ± 0.41

Substance: CLGTWPNLLGSISTMYAD
- amyloid nucleation score: 0.854 ± 0.53

Substance: LRTSSSYSFLEYIRS
- amyloid nucleation score: -1.08 ± 1

Substance: VLDTMYGTDIQRRTMGKANT
- amyloid nucleation score: 0.391 ± 0.36

Substance: SCCCYMIGKGIPQM
- amyloid nucleation score: 0.394 ± 0.3

Substance: KLMFRHV
- amyloid nucleation score: 5.01 ± 0.081

Substance: CSYPNTLNCELMGILCYVGN
- amyloid nucleation score: 6.47 ± 0.024

Substance: RLFDRSVLPLGLWVRCKIHW
- amyloid nucleation score: 0.28 ± 0.61

Substance: NKLTVPYTVDVNDTILDRGK
- amyloid nucleation score: -0.015 ± 0.46

Substance: CLSMFTVWSLAFASLSVTMR
- amyloid nucleation score: -0.034 ± 0.45

Substance: FAYFDDLGVLMLYQLNRMSL
- amyloid nucleation score: -0.097 ± 1.1

Substance: RMVRGLAFGDFWASSMRKYP
- amyloid nucleation score: 0.241 ± 0.33

Substance: VSVVFNARPHRDSHNPSAER
- amyloid nucleation score: 6.129 ± 0.054

Substance: DYDNW
- amyloid nucleation score: -0.618 ± 1.1

Substance: NAQSRVLAEETGLSNPPIML
- amyloid nucleation score: -1.45 ± 0.62

Substance: AAVNWNRFPKTVTA
- amyloid nucleation score: -0.195 ± 0.33

Substance: LALCREWVTAGSGSFYLDGP
- amyloid nucleation score: -0.06 ± 1.1

Substance: FEIGSV
- amyloid nucleation score: inactive

Substance: AESICSSVRSYGMSSFRDPE
- amyloid nucleation score: -0.887 ± 0.64

Substance: KMHCGFDFEWVTTYNTTIVR
- amyloid nucleation score: -0.369 ± 0.47

Substance: SSLNHNPGWTEIYELHLVGF
- amyloid nucleation score: 0.27 ± 0.8

Substance: DCECGLNSWKKVT
- amyloid nucleation score: inactive

Substance: FSSRNFNLCRKTYWWCDSYQ
- amyloid nucleation score: -0.066 ± 1

Substance: DRWEPKLI
- amyloid nucleation score: -0.516 ± 0.23

Substance: FCRIAATTRHMHGGLVGRWS
- amyloid nucleation score: 1.04 ± 0.68

Substance: IYWLSYQTMVPIQAVYIHRC
- amyloid nucleation score: -0.087 ± 0.42

Substance: SVIDFLLAYRKDLWCWDLT
- amyloid nucleation score: 0.19 ± 0.8

Substance: MLRLFQYFLGTNFWGHQGFS
- amyloid nucleation score: -0.724 ± 1.1

Substance: ADPSDVFMVVVLGSCRAFTV
- amyloid nucleation score: 1.63 ± 0.47

Substance: VTYWFLLHNIRRLPRYIWLR
- amyloid nucleation score: -0.664 ± 0.48

Substance: TLWYRLFLVSISVFPKFVTE
- amyloid nucleation score: -0.451 ± 1.1

Substance: WVWRIRDCLIVSSTPTGMRV
- amyloid nucleation score: 0.806 ± 0.27

Substance: LKSKVTLSYYSIVPAISVYE
- amyloid nucleation score: inactive

Substance: LILGLRGPLPCMLHNSGTYL
- amyloid nucleation score: 0.19 ± 1.1

Substance: LNHKDICFARNLVRVREGHN
- amyloid nucleation score: 0.809 ± 0.38

Substance: RFGGSVYARGERL
- amyloid nucleation score: -0.159 ± 0.46

Substance: WGWEIFIVWTWLRGVILYVL
- amyloid nucleation score: -0.602 ± 1.1

Substance: DDCCSVNAMHSANCMMVVR
- amyloid nucleation score: 0.09 ± 1

Substance: VYCFSAFLGQ
- amyloid nucleation score: 3.63 ± 0.082

Substance: MSSINTRPRNDA
- amyloid nucleation score: -0.645 ± 0.37

Substance: EIQHRNTAYYRSVSVGPTAV
- amyloid nucleation score: 0.987 ± 0.67

Substance: RSCFPMIIALVRFDVFGDCY
- amyloid nucleation score: -0.339 ± 0.31

Substance: YCMCIFATLG
- amyloid nucleation score: -0.398 ± 0.76

Substance: MHEAH
- amyloid nucleation score: 0.439 ± 0.46

Substance: CRPGRLYVQIIFISMIRDNR
- amyloid nucleation score: -0.513 ± 0.48

Substance: TFRYVWLSHPV
- amyloid nucleation score: 3.63 ± 0.11

Substance: GSDQNSCELSRRDIKKCMAL
- amyloid nucleation score: 0.504 ± 0.33

Substance: QLGIGFFGRKWDGHL
- amyloid nucleation score: 2.79 ± 0.16

Substance: YFVGWCIYEVNAYISVPVVF
- amyloid nucleation score: inactive

Substance: QIYCVSPLSRHWYFARYGVT
- amyloid nucleation score: 0.78 ± 0.32

Substance: VTAAIIVFCNGVLVRWTFIM
- amyloid nucleation score: -0.99 ± 1

Substance: IFCYPQCVGPRSLCVGGNME
- amyloid nucleation score: -0.72 ± 0.39

Substance: VIHMVPMTEGGLPCTV
- amyloid nucleation score: -0.139 ± 0.56

Substance: VYYSNTTTRSCSEMQVVFFF
- amyloid nucleation score: -1.13 ± 0.41

Substance: SDEVVVFRRDMSGCHEFVLV
- amyloid nucleation score: 1.12 ± 0.27

Substance: KNNTADWWIRSNSERYRN
- amyloid nucleation score: -0.039 ± 0.46

Substance: MCVGNYVLRFLALPPSGCNM
- amyloid nucleation score: -0.806 ± 0.36

Substance: KVLLMTRT
- amyloid nucleation score: -0.113 ± 0.45

Substance: TRGIVGFPD
- amyloid nucleation score: 3.93 ± 0.067

Substance: TAGLYDKTLFYSFYLRYPKF
- amyloid nucleation score: inactive

Substance: VKALNH
- amyloid nucleation score: 0.66 ± 0.33

Substance: IIHAFHMSGPLLRAQVS
- amyloid nucleation score: -0.308 ± 0.38

Substance: CRIFDTVSMLNSFYHGH
- amyloid nucleation score: inactive

Substance: LMALTPIVVVYIMGSMDLST
- amyloid nucleation score: -0.436 ± 1.1

Substance: DGVCKFQELMSFPGKLYS
- amyloid nucleation score: -0.447 ± 0.5

Substance: TTRYANWNMNINLGL
- amyloid nucleation score: 6.613 ± 0.046

Substance: YNSPSDWDTIISSIILF
- amyloid nucleation score: -1.21 ± 1.1

Substance: NARVTGVF
- amyloid nucleation score: inactive

Substance: KRVGTYEVKI
- amyloid nucleation score: -0.253 ± 0.55

Substance: VYTRMKITVGFKYLYN
- amyloid nucleation score: 1.24 ± 0.45

Substance: SWWIGASEVVHGSKSEGI
- amyloid nucleation score: -0.357 ± 1.1

Substance: KMKFKKENFC
- amyloid nucleation score: -0.858 ± 1

Substance: CAYGLFVNVFSVDADLRYKY
- amyloid nucleation score: 7.544 ± 0.022

Substance: AVLSITMKGVVWKGLSNLCC
- amyloid nucleation score: inactive

Substance: YALWFVIWEVGRGFLVVISF
- amyloid nucleation score: inactive

Substance: CFCMINTCYSVINSFTYYGK
- amyloid nucleation score: 8.047 ± 0.066

Substance: NRFAHNALVAL
- amyloid nucleation score: 4.08 ± 0.062

Substance: LGKFFNNPLLFGFY
- amyloid nucleation score: inactive

Substance: FYSSPILM
- amyloid nucleation score: -0.927 ± 0.41

Substance: WTMMYCTNACYDRYICNYRA
- amyloid nucleation score: -0.038 ± 1.1

Substance: RLNAMEESIKSNIYSFWSFY
- amyloid nucleation score: inactive

Substance: LTGCAKLGSLKLSLAPVYVD
- amyloid nucleation score: 0.811 ± 0.82

Substance: CSAITGY
- amyloid nucleation score: 0.564 ± 0.23

Substance: LRKPSTIFEHDAKNSRV
- amyloid nucleation score: -0.67 ± 0.79

Substance: FCCHHCITGITEKAN
- amyloid nucleation score: 0.674 ± 0.36

Substance: SIYSSGNALTYQRIHNWVGI
- amyloid nucleation score: -0.953 ± 0.44

Substance: YYNSATPTDDGWWKISG
- amyloid nucleation score: -0.574 ± 1

Substance: TPSFLLMICRNMVLGCG
- amyloid nucleation score: 0.472 ± 0.8

Substance: RSKDYVFFCFSCTNWLC
- amyloid nucleation score: 8 ± 0.082

Substance: SVLLVSLDFSPITGYSKGGL
- amyloid nucleation score: 2.72 ± 0.082

Substance: ITYLWYISVLYREMPLCCAS
- amyloid nucleation score: 0.237 ± 0.25

Substance: VYEKVVLGKDFVM
- amyloid nucleation score: -0.28 ± 0.79

Substance: LGYTSFYSFILKEGMFTAMG
- amyloid nucleation score: 0.434 ± 0.27

Substance: NGFMVSFV
- amyloid nucleation score: -1.39 ± 0.41

Substance: SFDWWASHRTIVY
- amyloid nucleation score: -0.217 ± 0.42

Substance: VIHSPQMLSWSSHGNARFSK
- amyloid nucleation score: 0.628 ± 0.33

Substance: PNRYYQLGTYFLNVQVRQFG
- amyloid nucleation score: 4.18 ± 0.045

Substance: LFAIKTGQDHCNTRLKKSQC
- amyloid nucleation score: -0.087 ± 0.76
